Bounds are passed on as bounds.

The term Kd denotes the constant that tells how readily two partners part at equilibrium.

The target of assay [1] is African green monkey IL-6 (African green monkey). Nature of the assay: monovalent affinity.
The next assay concerns the target T1, rat IL-6 (rat, UniProt P20607 25-211).
T1 construct: also called rodent IL-6
T1 sequence (looked up): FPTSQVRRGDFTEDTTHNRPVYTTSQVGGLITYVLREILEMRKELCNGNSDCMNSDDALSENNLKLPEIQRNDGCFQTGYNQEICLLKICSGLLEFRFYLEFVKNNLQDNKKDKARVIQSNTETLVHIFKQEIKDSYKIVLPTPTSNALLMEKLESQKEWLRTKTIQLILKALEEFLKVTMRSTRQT
Nature of the assay: monovalent affinity.

The next assay deals with T2, dog IL-6 (dog, UniProt P41323 21-207, limits assumed).
T2 construct: also called canine IL-6
T2 sequence (looked up): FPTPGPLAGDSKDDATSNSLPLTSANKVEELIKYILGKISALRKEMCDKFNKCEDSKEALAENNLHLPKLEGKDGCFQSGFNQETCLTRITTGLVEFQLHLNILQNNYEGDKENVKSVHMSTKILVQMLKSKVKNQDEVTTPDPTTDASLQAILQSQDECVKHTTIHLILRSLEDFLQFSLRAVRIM
Nature of the assay: monovalent affinity.

A further assay has as its target T3, mouse IL-6 (mouse, UniProt P08505 25-211).
T3 construct: also called rodent IL-6
T3 sequence (looked up): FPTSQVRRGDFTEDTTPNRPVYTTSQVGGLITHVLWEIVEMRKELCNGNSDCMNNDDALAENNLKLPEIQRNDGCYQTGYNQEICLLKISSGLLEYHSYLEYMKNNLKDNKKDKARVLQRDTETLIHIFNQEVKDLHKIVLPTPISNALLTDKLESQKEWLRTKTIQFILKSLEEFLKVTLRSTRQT
Nature of the assay: monovalent affinity.

The target of the next assay is T4, rabbit IL-6 (rabbit, UniProt Q9MZR1 27-241, limits assumed).
T4 sequence (looked up): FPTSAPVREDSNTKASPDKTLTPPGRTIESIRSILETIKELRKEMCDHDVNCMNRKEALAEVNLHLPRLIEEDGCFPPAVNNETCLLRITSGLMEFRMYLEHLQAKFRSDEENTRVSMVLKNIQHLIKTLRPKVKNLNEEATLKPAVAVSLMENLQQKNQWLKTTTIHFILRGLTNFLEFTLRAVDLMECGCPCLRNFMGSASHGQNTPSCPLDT
Nature of the assay: monovalent affinity.

Assay [2] addresses T5, human IL-6 (human, UniProt P05231 30-212).
T5 construct: also called IL-6 (R&D Systems, cat# 206-IL/CF); biotinylated human IL-6
Nature of the assay: affinity tested using the yeast system; original humanized h64, before affinity maturation; yeast system.

Assay [3] addresses T5, human IL-6. The assay can be described thus: ELISA, hybridoma supernatant on plates coated with human IL-6. On the procedure: Hybridoma supernatants were screened for IL-6 binding and antagonism. For the binding ELISA, Costar 9018 plates were coated with 1 μg/mL human IL-6 in PBS overnight at 4° C. Wells were blocked with PBS containing 2% BSA, washed, and then incubated with 50 μL of each hybridoma supernatant diluted 1:2 with PBS containing 2% BSA. After 60 minutes, wells were washed three times with 300 μl PBS containing 0.1% Tween-20. Anti-mouse-HRP diluted 1:3000 in PBS-BSA was then added to each well and incubated for 30 minutes. Wells were washed as above then 3,3′,5,5′-tetramethylbenzidine (TMB) substrate was added and the signal measured at 450 and 550 nm. For antagonism studies, HEK-Blue™-IL6 reporter cells (InvivoGen. San Diego, Calif.) were incubated with increasing concentrations of human IL-6 in the presence of 1:10 diluted hybridoma supernatant. After 20-24 hours, 20 μl of supernatant was mixed with 180 μl QuantiBlue™ (InvivoGen) and the absorbance measured at 655 nm.
For orientation: ELISA stands for enzyme-linked immunosorbent assay.

The target in assay [4] is T5, human IL-6. The assay can be described thus: ELISA, blocking of IL-6/IL-6Rα complex binding to gp130.

B1: 018 Fab (Fab, V domains shown)
VH: QVQLVQSGAEVKKPGSSVKVSCKASGYALSNYLIEWVRQAPGQGLEWMGVITPGSGTINYAQKFQGRVTITADESTSTAYMELSSLRSEDTAVYYCARSRWDPLYYYALEYWGQGTTVTVSS
VL: DIVMTQSPDSLAVSLGERATINCRASESVDNYGIPFMNWYQQKPGQPPKLLIYAASNRGSGVPDRFSGSGSGTDFTLTISSLQAEDVAVYYCQQSEEVPLTFGQGTKLEIKR
notes: Fab with CK and IgG1 CH1 domains; also called Fab fragment of the h64-1,4 humanized antibody
Regarding B1, the Kd in assay [1] is 0.28 nM; with rat IL-6 it was above 1000 nM; with dog IL-6 it was above 1000 nM; with mouse IL-6, above 1000 nM; in the assay with rabbit IL-6, above 1000 nM.

B2: h64 IgG (antibody, V domains shown)
VH: QVQLVQSGAEVKKPGSSVKVSCKASGYAFSNYLIEWVRQAPGQGLEWMGVITPGSGTINYAQKFQGRVTITADESTSTAYMELSSLRSEDTAVYYCARSRWDPLYYYALEYWGQGTTVTVSS
VL: DIVMTQSPDSLAVSLGERATINCRASESVDNYGISFMNWYQQKPGQPPKLLIYAASNQGSGVPDRFSGSGSGTDFTLTISSLQAEDVAVYYCQQSKEVPLTFGQGTKLEIK
notes: also called original h64 antibody; original humanized molecule
In the assay with human IL-6 [2], B2 had a Kd of 0.343 nM.

B3: murine 64 antibody (antibody, V domains shown)
VH: QVQLQQSGAELVRPGTSVKVSCKASGYAFSNYLIEWVKQRPGQGLEWIGVITPGSGTINYNEKFKGKAVLTADKSSSTVYMQLSSLTSDDSAVYFCAKSRWDPLYYYALEYWGQGTSVTVSS
VL: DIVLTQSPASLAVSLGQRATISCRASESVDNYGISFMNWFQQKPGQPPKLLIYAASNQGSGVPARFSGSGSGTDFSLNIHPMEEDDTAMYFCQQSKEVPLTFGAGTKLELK
notes: Murine monoclonal; also called hybridoma 64; m64
On to B3, for which, in the assay with human IL-6 [3], the binding result was “binds”.

B4: chimeric murine 64 antibody (antibody, V domains shown)
VH: QVQLQQSGAELVRPGTSVKVSCKASGYAFSNYLIEWVKQRPGQGLEWIGVITPGSGTINYNEKFKGKAVLTADKSSSTVYMQLSSLTSDDSAVYFCAKSRWDPLYYYALEYWGQGTSVTVSS
VL: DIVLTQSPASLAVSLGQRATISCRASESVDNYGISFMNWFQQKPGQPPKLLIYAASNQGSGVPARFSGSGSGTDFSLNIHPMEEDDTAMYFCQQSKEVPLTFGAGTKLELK
notes: constant regions not described
In the case of B4, the binding result in the assay with human IL-6 [4] is listed as “binds”.

For the origin of these results see patent US20180222975A1 (ELEVEN BIOTHERAPEUTICS, published 2018).
